In this test the target is T1, Nectin4-HIS protein (AcroBiosystems #NE4-H52H3) (UniProt Q96NY8 32-349).
T1 construct: Bought protein; also called Nectin4 protein; recombinant Nectin4-HIS protein; not shown: His tag
T1 sequence (looked up): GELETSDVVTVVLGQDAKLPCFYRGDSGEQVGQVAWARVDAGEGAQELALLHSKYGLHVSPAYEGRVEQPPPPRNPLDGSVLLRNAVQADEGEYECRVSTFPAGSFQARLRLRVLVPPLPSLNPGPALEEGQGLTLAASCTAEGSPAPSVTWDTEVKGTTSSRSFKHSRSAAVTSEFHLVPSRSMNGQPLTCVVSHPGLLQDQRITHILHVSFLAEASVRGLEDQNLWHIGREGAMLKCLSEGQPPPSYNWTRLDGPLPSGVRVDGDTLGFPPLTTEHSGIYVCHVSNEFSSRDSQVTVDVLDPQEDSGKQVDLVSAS
As to the kind of experiment: flow cytometry, Nectin4-HIS at 2 ug/ml on CAR-transduced Nurkat cells. (In general: Flow cytometry measures light scatter and fluorescence of single cells or particles in a stream.)

B1: MARS SP_NEC_S_31_P3113_CD8 Hinge_CD28 tm_41BB_CD3Z (other)
chain: EVQLLESGGGLVQPGGSLRLSCAASGFTYSSYAMGWYRQAPGKERELVSSISGSGGSTRYADSVKGRFTISRDNSKNTLYLQMNSLKPEDTAVYYCAVAIGVGDYWGQGTQVTVSSTTTPAPRPPTPAPTIASQPLSLRPEACRPAAGGAVHTRGLDFACDFWVLVVVGGVLACYSLLVTVAFIIFWVKRGRKKLLYIFKQPFMRPVQTTQEEDGCSCRFPEEEEGGCELRVKFSRSADAPAYQQGQNQLYNELNLGRREEYDVLDKRRGRDPEMGGKPRRKNPQEGLYNELQKDKMAEAYSEIGMKGERRRGKGHDGLYQGLSTATKDTYDALHMQALPPR
notes: Chimeric antigen receptor on transduced Nurkat cells or primary T cells
B1: the binding result was “binds”.

These data come from US20260199463A1 (CENTURY THERAPEUTICS, published 2026).
